Results: publication PMC3470543, “Effects of the Missense Mutations in Canine BRCA2 on BRC Repeat 3 Functions and Comparative Analyses between Canine and Human BRC Repeat 3” (PLoS ONE, 2012)

T1: recombinant full-length human RAD51 (Bio Academia) (human, UniProt Q06609 1-339)
T1 construct: human RAD51 recombinase, recombinant full-length protein; also called hRAD51; source: bought: Bio Academia
T1 sequence (looked up): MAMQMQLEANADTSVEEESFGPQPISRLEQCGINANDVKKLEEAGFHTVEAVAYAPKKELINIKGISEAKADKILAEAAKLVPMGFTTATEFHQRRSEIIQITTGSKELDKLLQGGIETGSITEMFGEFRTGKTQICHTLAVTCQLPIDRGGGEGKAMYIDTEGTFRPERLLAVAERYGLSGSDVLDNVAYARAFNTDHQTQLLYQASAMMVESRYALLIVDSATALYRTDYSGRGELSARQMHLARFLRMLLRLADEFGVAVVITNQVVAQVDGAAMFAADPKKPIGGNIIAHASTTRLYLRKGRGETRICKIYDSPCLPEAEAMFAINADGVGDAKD


Biological target: T1, recombinant full-length human RAD51 …
Experiment: pull-down; 300 nM GST-fused peptides with 53.6 nM hRAD51 in 50 mM Tris pH 8.0, 150 mM NaCl, 1 mM EDTA, 1 mM DTT, 4°C, 1 h; captured on glutathione sepharose 4B; western blot with anti-RAD51
Conditions: both partners purified

binding result	Binder
binds	GST-fused wild-type canine BRC3 (cBRC3) (aa 1410-1482) peptide (domain or fragment, UniProt Q8MKI9 1410-1482, looked up, BRC repeat 3 region of canine BRCA2, aa 1410-1482; also called GST-cBRC3; wild-type cBRC3; source: Rosetta II cells (pGEX6p-1), purified (glutathione sepharose 4B)) GQNIKDFDTFYLSFQTASRKNIRVSKESLNKARSLLNQKWTEEELNNFSDSLNSELLPGIDIKKTDISNHEVI
binds	GST-fused K1435R mutant canine BRC3 (aa 1410-1482) peptide (domain or fragment, UniProt Q8MKI9 1410-1482, looked up, BRC repeat 3 region of canine BRCA2, aa 1410-1482, with the mammary tumor-derived mutation K1435R; Mutation reported from canine mammary tumor samples; also called K1435R mutant cBRC3; GST-cBRC3 with the K1435R mutation; source: Rosetta II cells (pGEX6p-1), purified (glutathione sepharose 4B)) GQNIKDFDTFYLSFQTASRKNIRVSRESLNKARSLLNQKWTEEELNNFSDSLNSELLPGIDIKKTDISNHEVI
